The source of these data is paper PMC3900688, “Expression and Purification of Chaperone-Active Recombinant Clusterin” (PLoS ONE, 2014).

The data set deals with the molecule itself. The experiment in a line: SEC; Superose 6 10/300 column in PBS/Az, 0.3 ml/min, A280 monitored; self-association (mixture of oligomers). Background: SEC sorts molecules by how far they enter the pores of the column.

B1: wild type clusterin purified from human plasma (natural protein)
chain 1: DQTVSDNELQEMSNQGSKYVNKEIQNAVNGVKQIKTLIEKTNEERKTLLSNLEEAKKKKEDALNETRESETKLKELPGVCNETMMALWEECKPCLKQTCMKFYARVCRSGSGLVGRQLEEFLNQSSPFYFWMNGDRIDSLLENDRQQTHMLDVMQDHFSRASSIIDELFQDRFFTREPQDTYHYLPFSLPHRRPHFFFPKSRIVR
chain 2: SLMPFSPYEPLNFHAMFQPFLEMIHEAQQAMDIHFHSPAFQHPPTEFIREGDDDRTVCREIRHNSTGCLRMKDQCDKCREILSVDCSTNNPSQAKLRRELDESLQVAERLTRKYNELLKSYQWKMLNTSSLLEQLNEQFNWVSRLANLTQGEDQYYLRVTTVASHTSDSDVPSGVTEVVVKLFDSDPITVTVPVEVSRKNPKFMETVAEKALQEYRKKHREE
modifications: glycosylated | glycosylated
notes: clusterin beta-chain, human; joined to the alpha-chain by 5 disulfide bonds; clusterin alpha-chain, human; joined to the beta-chain by 5 disulfide bonds; Disulphide-bonded alpha-beta heterodimer with heterogeneous glycosylation, from pooled donors; also called wtCLU; human plasma clusterin
On to B1, for which the binding result was “binds”.

B2: mammalian cell-expressed recombinant clusterin secreted by stably transfected HEK293 cells (natural protein, human)
chain 1: DQTVSDNELQEMSNQGSKYVNKEIQNAVNGVKQIKTLIEKTNEERKTLLSNLEEAKKKKEDALNETRESETKLKELPGVCNETMMALWEECKPCLKQTCMKFYARVCRSGSGLVGRQLEEFLNQSSPFYFWMNGDRIDSLLENDRQQTHMLDVMQDHFSRASSIIDELFQDRFFTREPQDTYHYLPFSLPHRRPHFFFPKSRIVR
chain 2: SLMPFSPYEPLNFHAMFQPFLEMIHEAQQAMDIHFHSPAFQHPPTEFIREGDDDRTVCREIRHNSTGCLRMKDQCDKCREILSVDCSTNNPSQAKLRRELDESLQVAERLTRKYNELLKSYQWKMLNTSSLLEQLNEQFNWVSRLANLTQGEDQYYLRVTTVASHTSDSDVPSGVTEVVVKLFDSDPITVTVPVEVSRKNPKFMETVAEKALQEYRKKHREE
modifications: glycosylated | glycosylated
notes: clusterin beta-chain, human, from human CLU cDNA in pRcCMV; secreted and cleaved into alpha- and beta-chains; clusterin alpha-chain, human, from human CLU cDNA in pRcCMV; Disulphide-bonded alpha-beta heterodimer, less glycosylated than plasma clusterin; No tag is stated; also called m-rCLU; rCLU
B2: the binding result is listed as “binds”.
